Results on 83 variants are retold here after the RNAGym collection of RNA variant scans (doi:10.1093/molbev/msab373).

The chains are these.
B1: Azoarcus group I ribozyme (parent)
chain: GUGCCUUGCGCCGGGAAACCACGCAAGGGAUGGUGUCAAAUUCGGCGAAACCUAAGCGCCCGCCCGGGCGUAUGGCAACGCCGAGCCAAGCUUCGGCGCCUGCGCCGAUGAAGGUGUAGAGACUAGACGGCACCCACCUAAGGCAAACGCUAUGGUGAAGGCAUAGUCCAGGGAGUGGCGAAAGUCACACAAACCGG

In this data set the parent is B1. The experiment in a line: reverse-splicing fitness (ratio to wild type); higher = more active; in vitro selection; Mg2+ level not given. Summed up:
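An in vitro group I ribozyme library with randomized positions was T7-transcribed and gel-purified. In triplicate, 10 pmol RNA in EPPS pH 7.5 was reacted with 50 pmoles of a 30-nt RNA substrate for 1 h at 37 °C across several added MgCl2 levels (1–48 mM), then stopped with EDTA. Products were reverse transcribed from a substrate-complementary primer, PCR-amplified and sequenced (HiSeq 4000). Fitness is a variant's read proportion after selection over that before, normalised to wild type.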
As for C82G A111G A120U A145G C150U C169U U176C, the reverse-splicing fitness turned out to be 0.00574.

As for C82G A111G A120U A145G C150U C169U U176A, the reverse-splicing fitness was 0.00467.

Turning to C82G A111G A120U A145G C150U C169U U176G, the reverse-splicing fitness is 0.00229.

Take C82G A111G A145C C150U C169U U176C: the reverse-splicing fitness was found to be 0.0103.

For the variant C82G A111G A145C C150U C169U U176A, the reverse-splicing fitness was found to be 0.0142.

Consider C82G A111G A145C C150U C169U U176G, for which the reverse-splicing fitness amounted to 0.0062.

With C82G A111G A120U A145U C150G C169A U176A, the reverse-splicing fitness amounted to 0.00415.

Take C82G A111G A120U A145U C150G C169A U176C: the reverse-splicing fitness amounted to 0.00298.

C82G A111G A120U A145U C150G C169A U176G: the reverse-splicing fitness was 0.00219.

Take C82G A111G A145G C169G U176A: the reverse-splicing fitness was found to be 0.016.

In the case of C82G A111G A145G C169G U176G, the reverse-splicing fitness is 0.00505.

For the variant C82G A111G A145G C169G U176C, the reverse-splicing fitness amounted to 0.0231.

In the case of C82G A111G A120U A145U C150U C169A, the reverse-splicing fitness stood at 0.00289.

For the variant C82G A111G A120U A145U C150U C169G, the reverse-splicing fitness was found to be 0.00324.

With C82G A111G A120U A145U C150U C169U, the reverse-splicing fitness was 0.00393.

With C82G A111G A145C C150A C169A U176C, the reverse-splicing fitness is 0.00683.

As for C82G A111G A145C C150A C169A U176A, the reverse-splicing fitness came to 0.0136.

For the variant C82G A111G A145C C150A C169A U176G, the reverse-splicing fitness came to 0.00663.

For C82G A111G A145G C150A U176G, the reverse-splicing fitness stood at 0.0208.

For the variant C82G A111G A145G C150A U176A, the reverse-splicing fitness was 0.0383.

With C82G A111G A145G C150A U176C, the reverse-splicing fitness was found to be 0.051.

Regarding C82G A111G A145C C150G C169A U176C, the reverse-splicing fitness was found to be 0.0105.

On to C82G A111G A145C C150G C169A U176A, for which the reverse-splicing fitness was determined as 0.00983.

Take C82G A111G A145C C150G C169A U176G: the reverse-splicing fitness turned out to be 0.00615.

On to C82G A111G A145C C150U C169U, for which the reverse-splicing fitness is 0.0102.

As to C82G A111G A145C C150U C169G, the reverse-splicing fitness was 0.00753.

On to C82G A111G A145C C150U C169A, for which the reverse-splicing fitness turned out to be 0.00783.

With C82G A111G A145C C169G, the reverse-splicing fitness is 0.00994.

As to C82G A111G A145C C169U, the reverse-splicing fitness was found to be 0.0132.

Regarding C82G A111G A145C C169A, the reverse-splicing fitness is 0.00733.

Take C82G A111G A120U U176G: the reverse-splicing fitness turned out to be 0.00562.

C82G A111G A120U U176C: the reverse-splicing fitness worked out at 0.0294.

For C82G A111G A120U U176A, the reverse-splicing fitness was 0.018.

C82G A111G A145G C150U: the reverse-splicing fitness worked out at 0.316.

Consider C82G A111G A145G C150A, for which the reverse-splicing fitness came out at 0.0499.

Turning to C82G A111G A145G C150G, the reverse-splicing fitness was 0.0374.

C82G A111G A120U A145G C169G U176C: the reverse-splicing fitness was determined as 0.00531.

In the case of C82G A111G A120U A145G C169G U176A, the reverse-splicing fitness was 0.00491.

Turning to C82G A111G A120U A145G C169G U176G, the reverse-splicing fitness was found to be 0.00184.

As to C82G A111G A120U C150U C169U U176A, the reverse-splicing fitness stood at 0.00523.

Regarding C82G A111G A120U C150U C169U U176C, the reverse-splicing fitness is 0.0051.

C82G A111G A120U C150U C169U U176G: the reverse-splicing fitness stood at 0.00214.

Turning to C82G A111G A145G C169U U176C, the reverse-splicing fitness is 0.0155.

C82G A111G A145G C169U U176A: the reverse-splicing fitness was determined as 0.0132.

Turning to C82G A111G A145G C169U U176G, the reverse-splicing fitness is 0.0049.

Regarding C82G A111G A145G C169A U176A, the reverse-splicing fitness was 0.0158.

C82G A111G A145G C169A U176C: the reverse-splicing fitness amounted to 0.0235.

Consider C82G A111G A145G C169A U176G, for which the reverse-splicing fitness amounted to 0.0057.

Consider C82G A111G A145C C150U C169G U176C, for which the reverse-splicing fitness was found to be 0.0114.

For the variant C82G A111G A145C C150U C169G U176G, the reverse-splicing fitness was determined as 0.00619.

Regarding C82G A111G A145C C150U C169G U176A, the reverse-splicing fitness stood at 0.0203.

On to C82G A111G A120U A145U C150A C169A U176A, for which the reverse-splicing fitness worked out at 0.00256.

In the case of C82G A111G A120U A145U C150A C169A U176C, the reverse-splicing fitness amounted to 0.00223.

Consider C82G A111G A120U A145U C150A C169A U176G, for which the reverse-splicing fitness came to 0.00211.

Take C82G A111G A120U A145U C169G U176G: the reverse-splicing fitness is 0.00156.

Take C82G A111G A120U A145U C169G U176A: the reverse-splicing fitness was 0.0022.

Turning to C82G A111G A120U A145U C169G U176C, the reverse-splicing fitness worked out at 0.00235.

C82G A111G A145G C150U C169U U176G: the reverse-splicing fitness is 0.00678.

As to C82G A111G A145G C150U C169U U176A, the reverse-splicing fitness is 0.0152.

With C82G A111G A145G C150U C169U U176C, the reverse-splicing fitness came out at 0.0151.

Consider C82G A111G A145C C169G U176G, for which the reverse-splicing fitness was found to be 0.00501.

C82G A111G A145C C169G U176A: the reverse-splicing fitness was 0.022.

Consider C82G A111G A145C C169G U176C, for which the reverse-splicing fitness was determined as 0.0131.

As for C82G A111G A145U C150A C169G U176A, the reverse-splicing fitness amounted to 0.0149.

With C82G A111G A145U C150A C169G U176C, the reverse-splicing fitness came to 0.0146.

In the case of C82G A111G A145U C150A C169G U176G, the reverse-splicing fitness was found to be 0.00554.

As for C82G A111G A120U A145G C150U C169U, the reverse-splicing fitness worked out at 0.00611.

Regarding C82G A111G A120U A145G C150U C169A, the reverse-splicing fitness was 0.00681.

As to C82G A111G A120U A145G C150U C169G, the reverse-splicing fitness was determined as 0.00707.

As to C82G A111G A145G, the reverse-splicing fitness turned out to be 0.431.

On to C82G A111G A145C, for which the reverse-splicing fitness worked out at 0.392.

On to C82G A111G A145U, for which the reverse-splicing fitness is 0.454.

In the case of C82G A111G A145U C150A C169A U176C, the reverse-splicing fitness came to 0.0131.

In the case of C82G A111G A145U C150A C169A U176A, the reverse-splicing fitness was 0.0154.

As for C82G A111G A145U C150A C169A U176G, the reverse-splicing fitness is 0.00645.

Consider C82G A111G A120U C150A C169A, for which the reverse-splicing fitness came to 0.00558.

C82G A111G A120U C150A C169U: the reverse-splicing fitness stood at 0.00399.

Turning to C82G A111G A120U C150A C169G, the reverse-splicing fitness was 0.00433.

For the variant C82G A111G A120U C169U U176G, the reverse-splicing fitness came out at 0.00158.

As for C82G A111G A120U C169U U176A, the reverse-splicing fitness amounted to 0.00385.

C82G A111G A120U C169U U176C: the reverse-splicing fitness is 0.0055.

On to C82G A111G A120U A145G C169G, for which the reverse-splicing fitness came to 0.00538.

In the case of C82G A111G A120U A145G C169A, the reverse-splicing fitness is 0.00466.
